How the values were obtained:
[1] = target: GST::bov-rPrP25-242 (rPrPc) (Bos taurus, UniProt P10279 P10279:25-242); test: EMSA; settings: tags: GST fusion, insect cells/baculovirus; label: 32P
[2] = target: GST::bov-rPrP93-242 (rPrP27-30 + 1 octarepeat) (Bos taurus, UniProt P10279 P10279:93-242); test: EMSA; settings: tags: GST fusion, insect cells/baculovirus; label: 32P

Binder	binding result [1]	binding result [2]
Ap1 motif I 60mer (ssRNA) RNA: GCAAUGCGUUGUGUGGGAAUUUGAGGGACGAUGGGGAAGUGGGGACGAAUGACUCAUUGC	binds	no binding
Ap2 motif II (ssRNA) RNA: GGAGCUCAGCCUUCACUGCUACCUUAGAGUAGGAGCGGGACGAGGGGUUGUUGGGACGUGGGUAUGAUCCAUACAUUAGGAAGCUGGUGAGCUGGCACCACGGUCGGAUCCAC	binds	no binding

Reference: patent US20030119019 (published 2003)
